Data taken from article PMC11630572.

Assays:
[1] = biological target: recombinant spike ectodomain of SARS-CoV-2 Omicron subvariant BA.5 (SARS-CoV-2); experiment: cryo-EM structure; complexes of BA.5 or JN.1 spike ectodomain with Nanosota-9-His (0.8 uM); three Nanosota-9 on each trimeric spike, two of them crosslinking two RBDs (2:2 mode)
[2] = biological target: recombinant spike ectodomain of SARS-CoV-2 Omicron subvariant JN.1 (SARS-CoV-2); experiment: as above

Substance “recombinant spike ectodomain of SARS-CoV-2 Omicron subvariant BA.5 (domain or fragment)” has a stoichiometry N [1] of 3.

“recombinant spike ectodomain of SARS-CoV-2 Omicron subvariant JN.1 (domain or fragment)” gave a stoichiometry N [2] of 3.
